The values below come from patent US20100166827A1.

For the assay, the target named is αVβ1/3/5 integrins located in the cardiomyocyte cell membrane. The assay can be described thus: cell-based or functional assay.

Substance “Recombinant periostin, purified from HEK293 cells expressing the full-length human cDNA (from UniProt Q15063 22-836) (ligand)” gave a half-maximal stimulation of DNA synthesis in primary neonatal rat ventricular cardiomyocytes (BrdU uptake) of 155 nM.
